Results: PMC5014550, “Mitochondrial Bol1 and Bol3 function as assembly factors for specific iron-sulfur proteins” (eLife, 2016)

T1: human GLRX5, protein used for NMR (human, UniProt Q86SX6 32-157)
T1 construct: human mitochondrial monothiol glutaredoxin GLRX5; Used as apo form with 5 mM GSH, or chemically reconstituted with a [2Fe-2S] cluster; the assay's format says which; also called apo-GLRX5; holo-GLRX5; source: produced as previously reported (Banci et al., 2014)
T1 sequence (looked up): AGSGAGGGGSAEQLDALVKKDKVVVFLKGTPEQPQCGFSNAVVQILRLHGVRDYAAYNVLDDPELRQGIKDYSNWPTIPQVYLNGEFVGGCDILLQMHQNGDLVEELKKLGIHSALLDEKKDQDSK

T2: human NFU1 (residues 57-254) with N-terminal His-tag (human, UniProt Q9UMS0 57-254)
T2 construct: Used as apo form or chemically reconstituted holo form carrying a [4Fe-4S] cluster; the assay's format says which; also called apo-NFU1; holo-NFU1; source: E. coli BL21 (DE3), pET-Duet1, purified (HisTrap HP, Superdex 200 gel filtration)
T2 sequence (looked up): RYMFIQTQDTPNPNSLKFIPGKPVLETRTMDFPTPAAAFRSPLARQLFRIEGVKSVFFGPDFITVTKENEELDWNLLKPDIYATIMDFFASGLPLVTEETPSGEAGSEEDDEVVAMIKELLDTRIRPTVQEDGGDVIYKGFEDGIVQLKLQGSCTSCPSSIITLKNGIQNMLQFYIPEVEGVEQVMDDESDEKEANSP

T3: human NFU1 (residues 57-254) with N-terminal His-tag (human, UniProt Q9UMS0 57-254)
T3 chain: T2 sequence (looked up)

B1: human BOLA1 (residues 21-137), NMR construct (natural protein, UniProt Q9Y3E2 21-137, looked up)
chain: QGSAGSGAIGPVEAAIRTKLEEALSPEVLELRNESGGHAVPPGSETHFRVAVVSSRFEGLSPLQRHRLVHAALAEELGGPVHALAIQARTPAQWRENSQLDTSPPCLGGNKKTLGTP
notes: human BOLA1, residues 21-137, construct for NMR; 15N- or 13C,15N-labelled where observed by NMR; His-tag cleaved by tobacco etch virus protease; also called 15N-labeled BOLA1; source: E. coli BL21(DE3)GOLD, pETG20A vector, purified; not shown: His-tag, N-terminal, cleaved
B2: human BOLA1 (residues 30-137) with N-terminal His-tag (natural protein, UniProt Q9Y3E2 30-137, looked up)
chain: GPVEAAIRTKLEEALSPEVLELRNESGGHAVPPGSETHFRVAVVSSRFEGLSPLQRHRLVHAALAEELGGPVHALAIQARTPAQWRENSQLDTSPPCLGGNKKTLGTP
notes: Labelled with NT-647 dye in MST; source: E. coli BL21 (DE3), pET-Duet1, purified (HisTrap HP, Superdex 200 gel filtration)
B3: human BOLA3 (residues 27-107), NMR construct (natural protein, UniProt Q53S33 27-107, looked up)
chain: ATQTEGELRVTQILKEKFPRATAIKVTDISGGCGAMYEIKIESEEFKEKRTVQQHQMVNQALKEEIKEMHGLRIFTSVPKR
notes: human BOLA3, residues 27-107, construct for NMR; 15N- or 13C,15N-labelled where observed by NMR; His-tag cleaved by tobacco etch virus protease; also called 15N-labeled BOLA3; source: E. coli BL21(DE3)GOLD, pET15 vector, purified; not shown: His-tag, N-terminal, cleaved
B4: human GLRX5 (residues 32-157) with N-terminal His-tag (natural protein, UniProt Q86SX6 32-157, looked up)
chain: T1 sequence (looked up)
notes: Chemically reconstituted with a [2Fe-2S] cluster (holo form, >85% holo); holo-GLRX5 alone eluted as a homodimer; also called holo-GLRX5; source: E. coli BL21 (DE3), pET-Duet1, purified (HisTrap HP, Superdex 200 gel filtration)
B5: human BOLA3 (residues 25-107) with N-terminal His-tag (natural protein, UniProt Q53S33 25-107, looked up)
chain: MFATQTEGELRVTQILKEKFPRATAIKVTDISGGCGAMYEIKIESEEFKEKRTVQQHQMVNQALKEEIKEMHGLRIFTSVPKR
notes: as for B2

Assays:
[1] = target: T1, human GLRX5, protein used for NMR; assay: NMR titration; 1H-15N HSQC; 15N-labeled BOLA1 or BOLA3 titrated with unlabeled apo-GLRX5 and vice versa; 15N R1 and R2 relaxation on the final mixtures; degassed buffer N (50 mM phosphate pH 7, 5 mM GSH, 5 mM DTT), 10% D2O, 298 K; conditions: both partners purified
[2] = target: B4; assay: SEC; gel filtration in buffer R of holo-GLRX5 alone, co-reconstituted equimolar GLRX5-BOLA1 and holo-GLRX5-BOLA3, recorded at 420 nm and 280 nm; fractions analysed by Coomassie and immunostaining; conditions: both partners purified
[3] = target: T2, human NFU1 (residues 57-254) with …; assay: MST; 200 nM NT-647-labeled BOLA1 or BOLA3, titrated with unlabeled apo-NFU1 (200 µM to 6.1 nM); buffer T (50 mM KPi pH 7.4, 150 mM NaCl, 5% glycerol, 0.05 mg/ml BSA, 0.05% Tween20), 21°C, anaerobic; conditions: both partners purified
[4] = target: T3, human NFU1 (residues 57-254) with …; assay: MST; holo-NFU1, anaerobic
[5] = target: T3, human NFU1 (residues 57-254) with …; assay: MST; apo-NFU1, anaerobic
[6] = target: the molecule itself; assay: SEC; gel filtration in buffer R of holo-GLRX5 alone, co-reconstituted equimolar GLRX5-BOLA1 and holo-GLRX5-BOLA3, recorded at 420 nm and 280 nm; fractions analysed by Coomassie and immunostaining
[7] = target: T2, human NFU1 (residues 57-254) with …; assay: MST; 200 nM NT-647-labeled BOLA1 or BOLA3, titrated with unlabeled chemically reconstituted holo-NFU1 carrying a [4Fe-4S] cluster (200 µM to 6.1 nM); buffer T, 21°C, anaerobic; conditions: both partners purified

Row | Binder | stoichiometry N [1] | Kd [3] | Kd [5] | further results
1 | B1 | 1 | – | – | –
2 | B2 | – | ~3000 nM | 3590 nM | binding result [2]: binds; Kd [4]: 2140 nM
3 | B3 | 1 | – | – | –
4 | B4 | – | – | – | stoichiometry N [6]: 2
5 | B5 | – | ~3000 nM | 3570 nM | Kd [7]: 800 nM
